Common to all, as to assay: fluorescence polarisation
Assay [1] concerns the target pSer(2,5) RNAPII CTD di-heptad repeat peptide.
The target in assay [2] is pSer2 RNAPII CTD di-heptad repeat peptide.
Assay [3] concerns the target pSer5 RNAPII CTD di-heptad repeat peptide.
For assay [4], the target named is unphosphorylated form of the RNAPII-CTD (peptide).
Assay [5] deals with pTyr1 RNAPII CTD di-heptad repeat peptide.

This note sets out measurements from publication PMC3086336.

Some results are limits rather than exact numbers.

B1: Spt6(1247–1451) (domain or fragment)
chain: AKRTHRVINHPYYFPFNGRQAEDYLRSKERGEFVIRQSSRGDDHLVITWKLDKDLFQHIDIQELEKENPLALGKVLIVDNQKYNDLDQIIVEYLQNKVRLLNEMTSSEKFKSGTKKDVVKFIEDYSRVNPNKSVYYFSLNHDNPGWFYLMFKINANSKLYTWNVKLTNTGYFLVNYNYPSVIQLCNGFKTLLKSNSSKNRMNNYR
A word on the Kd: it is the concentration at which binding is half-saturated. A higher Kd goes with a looser complex. Turning to B1, the Kd in assay [1] was 23 µM; in assay [2] it was 197 µM; in assay [3] it was 245 µM; in assay [4], over 1 mM.

B2: R1282A/S1284A Spt6(1247–1451) (domain or fragment)
chain: AKRTHRVINHPYYFPFNGRQAEDYLRSKERGEFVIAQASRGDDHLVITWKLDKDLFQHIDIQELEKENPLALGKVLIVDNQKYNDLDQIIVEYLQNKVRLLNEMTSSEKFKSGTKKDVVKFIEDYSRVNPNKSVYYFSLNHDNPGWFYLMFKINANSKLYTWNVKLTNTGYFLVNYNYPSVIQLCNGFKTLLKSNSSKNRMNNYR
Regarding B2, the fold decrease of binding against WT Spt6(1247–1451) in assay [2] turned out to be 1.2 fold; in assay [3] it was 1.4 fold; in assay [5], 2.4 fold.
